The text below walks through data of the Human Domainome abundance scans (Beltran et al. 2025).

B1: PDZ and LIM domain protein 2, residues 284 to 339; numbered along this chain, Q96JY6 (parent)
chain: HTCEKCSTSIANQAVRIQEGRYRHPGCYTCADCGLNLKMRGHFWVGDELYCEKHAR

± gives the uncertainty stated by the source.

Variants of B1 are the subject of this data set. The experiment in a line: abundance fitness (aPCA) (normalised: wild type 0, dead -1); higher = more abundant; growth selection in yeast, the domain comes from the species named. Conditions: Homo sapiens.
Take HTCEKCSTSIANQAVRIQEGRYRHPGCYTCADCKLNLKMRGHFWVGDELYCEKHAR: the abundance fitness is 0.073 ± 0.089.

With HTCEKCSTSIANQAVRIQEGRYRHPGCYTCADCLLNLKMRGHFWVGDELYCEKHAR, the abundance fitness was -0.165 ± 0.064.

For HTCEKCSTSIANQAVRIQEGRYRHPGCYTCADCRLNLKMRGHFWVGDELYCEKHAR, the abundance fitness was -0.064 ± 0.084.

On to HTCEKCSTSIANQAVRIQEGRYRHPGCYTCADRGLNLKMRGHFWVGDELYCEKHAR, for which the abundance fitness is -0.964 ± 0.086.

On to HTCEKCSTSIANQAVRIQEGRYRHPGCYTCADGGLNLKMRGHFWVGDELYCEKHAR, for which the abundance fitness was -0.682 ± 0.061.

For the variant HTCEKCSTSIANQAVRIQEGRYRHPGCYTCADYGLNLKMRGHFWVGDELYCEKHAR, the abundance fitness is -0.823 ± 0.15.

On to HTCEKCSTSIANQAVRIQEGRYRHPGCYTCADPGLNLKMRGHFWVGDELYCEKHAR, for which the abundance fitness is -0.757 ± 0.16.

In the case of HTCEKCSTSIANQAVRIQEGRYRHPGCYTCADSGLNLKMRGHFWVGDELYCEKHAR, the abundance fitness was -0.828 ± 0.11.

Take HTCEKCSTSIANQAVRIQEGRYRHPGCYTCADLGLNLKMRGHFWVGDELYCEKHAR: the abundance fitness is -0.549 ± 0.084.

In the case of HTCEKCSTSIANQAVRIQEGRYRHPGCYTCADHGLNLKMRGHFWVGDELYCEKHAR, the abundance fitness was -0.709 ± 0.12.

Take HTCEKCSTSIANQAVRIQEGRYRHPGCYTCADTGLNLKMRGHFWVGDELYCEKHAR: the abundance fitness is -0.747 ± 0.1.

As to HTCEKCSTSIANQAVRIQEGRYRHPGCYTCADWGLNLKMRGHFWVGDELYCEKHAR, the abundance fitness is -0.765 ± 0.17.

In the case of HTCEKCSTSIANQAVRIQEGRYRHPGCYTCADVGLNLKMRGHFWVGDELYCEKHAR, the abundance fitness is -0.885 ± 0.15.

On to HTCEKCSTSIANQAVRIQEGRYRHPGCYTCADMGLNLKMRGHFWVGDELYCEKHAR, for which the abundance fitness was -0.947 ± 0.079.

Turning to HTCEKCSTSIANQAVRIQEGRYRHPGCYTCADNGLNLKMRGHFWVGDELYCEKHAR, the abundance fitness is -0.741 ± 0.083.

Regarding HTCEKCSTSIANQAVRIQEGRYRHPGCYTCADCGWNLKMRGHFWVGDELYCEKHAR, the abundance fitness is -0.054 ± 0.088.

For the variant HTCEKCSTSIANQAVRIQEGRYRHPGCYTCADCGFNLKMRGHFWVGDELYCEKHAR, the abundance fitness was 0.178 ± 0.13.

HTCEKCSTSIANQAVRIQEGRYRHPGCYTCADCGCNLKMRGHFWVGDELYCEKHAR: the abundance fitness is -0.214 ± 0.14.

Consider HTCEKCSTSIANQAVRIQEGRYRHPGCYTCADCGENLKMRGHFWVGDELYCEKHAR, for which the abundance fitness is 0.086 ± 0.086.

In the case of HTCEKCSTSIANQAVRIQEGRYRHPGCYTCADCGPNLKMRGHFWVGDELYCEKHAR, the abundance fitness was -0.518 ± 0.14.

Take HTCEKCSTSIANQAVRIQEGRYRHPGCYTCADCGDNLKMRGHFWVGDELYCEKHAR: the abundance fitness was determined as 0.202 ± 0.087.

Turning to HTCEKCSTSIANQAVRIQEGRYRHPGCYTCADCGNNLKMRGHFWVGDELYCEKHAR, the abundance fitness stood at 0.062 ± 0.14.

For HTCEKCSTSIANQAVRIQEGRYRHPGCYTCADCGINLKMRGHFWVGDELYCEKHAR, the abundance fitness turned out to be 0.05 ± 0.082.

In the case of HTCEKCSTSIANQAVRIQEGRYRHPGCYTCADCGVNLKMRGHFWVGDELYCEKHAR, the abundance fitness came to 0.053 ± 0.064.

Take HTCEKCSTSIANQAVRIQEGRYRHPGCYTCADCGYNLKMRGHFWVGDELYCEKHAR: the abundance fitness was 0.01 ± 0.12.

Consider HTCEKCSTSIANQAVRIQEGRYRHPGCYTCADCGRNLKMRGHFWVGDELYCEKHAR, for which the abundance fitness is -0.187 ± 0.074.

With HTCEKCSTSIANQAVRIQEGRYRHPGCYTCADCGTNLKMRGHFWVGDELYCEKHAR, the abundance fitness amounted to 0.167 ± 0.11.

Consider HTCEKCSTSIANQAVRIQEGRYRHPGCYTCADCGGNLKMRGHFWVGDELYCEKHAR, for which the abundance fitness is 0.053 ± 0.081.

Regarding HTCEKCSTSIANQAVRIQEGRYRHPGCYTCADCGHNLKMRGHFWVGDELYCEKHAR, the abundance fitness is -0.015 ± 0.089.

With HTCEKCSTSIANQAVRIQEGRYRHPGCYTCADCGSNLKMRGHFWVGDELYCEKHAR, the abundance fitness was 0.005 ± 0.07.

As to HTCEKCSTSIANQAVRIQEGRYRHPGCYTCADCGANLKMRGHFWVGDELYCEKHAR, the abundance fitness turned out to be 0.102 ± 0.072.

Turning to HTCEKCSTSIANQAVRIQEGRYRHPGCYTCADCGMNLKMRGHFWVGDELYCEKHAR, the abundance fitness came out at 0.102 ± 0.12.

On to HTCEKCSTSIANQAVRIQEGRYRHPGCYTCADCGLSLKMRGHFWVGDELYCEKHAR, for which the abundance fitness is -0.038 ± 0.077.

For the variant HTCEKCSTSIANQAVRIQEGRYRHPGCYTCADCGLILKMRGHFWVGDELYCEKHAR, the abundance fitness was -0.127 ± 0.16.

As to HTCEKCSTSIANQAVRIQEGRYRHPGCYTCADCGLPLKMRGHFWVGDELYCEKHAR, the abundance fitness was 0.108 ± 0.13.

Regarding HTCEKCSTSIANQAVRIQEGRYRHPGCYTCADCGLFLKMRGHFWVGDELYCEKHAR, the abundance fitness was -0.189 ± 0.093.

On to HTCEKCSTSIANQAVRIQEGRYRHPGCYTCADCGLHLKMRGHFWVGDELYCEKHAR, for which the abundance fitness was -0.275 ± 0.18.

Regarding HTCEKCSTSIANQAVRIQEGRYRHPGCYTCADCGLVLKMRGHFWVGDELYCEKHAR, the abundance fitness was -0.113 ± 0.059.

Take HTCEKCSTSIANQAVRIQEGRYRHPGCYTCADCGLDLKMRGHFWVGDELYCEKHAR: the abundance fitness was -0.257 ± 0.16.

In the case of HTCEKCSTSIANQAVRIQEGRYRHPGCYTCADCGLLLKMRGHFWVGDELYCEKHAR, the abundance fitness was -0.145 ± 0.069.

Take HTCEKCSTSIANQAVRIQEGRYRHPGCYTCADCGLTLKMRGHFWVGDELYCEKHAR: the abundance fitness is -0.125 ± 0.061.

Consider HTCEKCSTSIANQAVRIQEGRYRHPGCYTCADCGLELKMRGHFWVGDELYCEKHAR, for which the abundance fitness came out at 0.099 ± 0.081.

As to HTCEKCSTSIANQAVRIQEGRYRHPGCYTCADCGLGLKMRGHFWVGDELYCEKHAR, the abundance fitness was -0.093 ± 0.067.

As to HTCEKCSTSIANQAVRIQEGRYRHPGCYTCADCGLMLKMRGHFWVGDELYCEKHAR, the abundance fitness is -0.07 ± 0.084.

As for HTCEKCSTSIANQAVRIQEGRYRHPGCYTCADCGLALKMRGHFWVGDELYCEKHAR, the abundance fitness was -0.104 ± 0.06.

In the case of HTCEKCSTSIANQAVRIQEGRYRHPGCYTCADCGLCLKMRGHFWVGDELYCEKHAR, the abundance fitness was -0.116 ± 0.083.

As to HTCEKCSTSIANQAVRIQEGRYRHPGCYTCADCGLKLKMRGHFWVGDELYCEKHAR, the abundance fitness was -0.478 ± 0.12.
